# Data: patent US20240401082A1 (Sanofi, published 2024)
# T1: human complement C1s enzyme (activated C1s) (human, UniProt P09871 16-437; P09871 438-688)
# T1 sequence 1: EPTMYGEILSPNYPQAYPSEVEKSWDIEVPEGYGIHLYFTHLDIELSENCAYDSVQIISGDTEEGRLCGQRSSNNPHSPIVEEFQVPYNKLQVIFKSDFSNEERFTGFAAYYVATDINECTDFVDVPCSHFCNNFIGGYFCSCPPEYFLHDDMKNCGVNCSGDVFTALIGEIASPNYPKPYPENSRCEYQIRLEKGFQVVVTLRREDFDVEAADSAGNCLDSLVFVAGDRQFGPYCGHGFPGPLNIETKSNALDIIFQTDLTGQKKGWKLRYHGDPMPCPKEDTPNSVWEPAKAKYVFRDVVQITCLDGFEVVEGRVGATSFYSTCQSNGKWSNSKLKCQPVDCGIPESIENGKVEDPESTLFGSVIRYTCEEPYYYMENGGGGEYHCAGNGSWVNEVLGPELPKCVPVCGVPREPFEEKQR
# T1 sequence 2: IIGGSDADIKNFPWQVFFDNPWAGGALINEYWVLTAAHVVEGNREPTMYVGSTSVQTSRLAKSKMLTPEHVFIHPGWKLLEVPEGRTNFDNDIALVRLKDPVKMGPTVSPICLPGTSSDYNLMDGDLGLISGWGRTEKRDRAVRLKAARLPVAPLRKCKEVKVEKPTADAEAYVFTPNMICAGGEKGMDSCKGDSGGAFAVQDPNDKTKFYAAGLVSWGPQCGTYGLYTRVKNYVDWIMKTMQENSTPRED
# B1: construct #8: αBb scFab-(G4S)3-αC1s scFab (bispecific antibody)
# chain: DIQMTQSPSTLSASVGDRVTITCKASQDVGTAVAWYQQKPGKAPKLLIYWASTRHTGVPDRFSGSGSGTDFTLTISSLQAEDFAVYFCHQHSSNPLTFGQGTKLEIKRTVAAPSVFIFPPSDEQLKSGTASVVCLLNNFYPREAKVQWKVDNALQSGNSQESVTEQDSKDSTYSLSSTLTLSKADYEKHKVYACEVTHQGLSSPVTKSFNRGECGGGGSGGGGSGGGGSGGGGSGGGGSGGGGSGGGGSEVQLVESGGGLVKPGGSLRLSCAASGFTFSNYAMSWVRQAPGKRLEWVATISNRGSYTYYPDSVKGRFTISRDNAKNSLYLQMNSLRAEDTALYYCARERPMDYWGQGTLVTVSSASTKGPSVFPLAPCSRSTSESTAALGCLVKDYFPEPVTVSWNSGALTSGVHTFPAVLQSSGLYSLSSVVTVPSSSLGTKTYTCNVDHKPSNTKVDKRVGGGGGSGGGGSGGGGSDIVLTQSPDSLAVSLGERATISCKASQSVDYDGDSYMNWYQQKPGQPPKILIYDASNLESGIPARFSGSGSGTDFTLTISSLEPEDFAIYYCQQSNEDPWTFGGGTKVEIKRTVAAPSVFIFPPSDEQLKSGTASVVCLLNNFYPREAKVQWKVDNALQSGNSQESVTEQDSKDSTYSLSSTLTLSKADYEKHKVYACEVTHQGLSSPVTKSFNRGECGGGGSGGGGSGGGGSGGGGSGGGGSGGGGSGGGGSQVQLVQSGAEVKKPGASVKLSCTASGFNIKDDYIHWVKQAPGQGLEWIGRIDPADGHTKYAPKFQVKVTITADTSTSTAYLELSSLRSEDTAVYYCARYGYGREVFDYWGQGTTVTVSSASTKGPSVFPLAPCSRSTSESTAALGCLVKDYFPEPVTVSWNSGALTSGVHTFPAVLQSSGLYSLSSVVTVPSSSLGTKTYTCNVDHKPSNTKVDKRV
# notes: Signal peptide marked by boldface only
# B2: construct #13: αC1s scFab-(G4S)2-αBb scFv (bispecific antibody)
# chain: DIVLTQSPDSLAVSLGERATISCKASQSVDYDGDSYMNWYQQKPGQPPKILIYDASNLESGIPARFSGSGSGTDFTLTISSLEPEDFAIYYCQQSNEDPWTFGGGTKVEIKRTVAAPSVFIFPPSDEQLKSGTASVVCLLNNFYPREAKVQWKVDNALQSGNSQESVTEQDSKDSTYSLSSTLTLSKADYEKHKVYACEVTHQGLSSPVTKSFNRGECGGGGSGGGGSGGGGSGGGGSGGGGSGGGGSGGGGSQVQLVQSGAEVKKPGASVKLSCTASGFNIKDDYIHWVKQAPGQGLEWIGRIDPADGHTKYAPKFQVKVTITADTSTSTAYLELSSLRSEDTAVYYCARYGYGREVFDYWGQGTTVTVSSASTKGPSVFPLAPCSRSTSESTAALGCLVKDYFPEPVTVSWNSGALTSGVHTFPAVLQSSGLYSLSSVVTVPSSSLGTKTYTCNVDHKPSNTKVDKRVGGGGSGGGGSEVQLVESGGGLVKPGGSLRLSCAASGFTFSNYAMSWVRQAPGKRLEWVATISNRGSYTYYPDSVKGRFTISRDNAKNSLYLQMNSLRAEDTALYYCARERPMDYWGQGTLVTVSSGGGGSGGGGSGGGGSDIQMTQSPSTLSASVGDRVTITCKASQDVGTAVAWYQQKPGKAPKLLIYWASTRHTGVPDRFSGSGSGTDFTLTISSLQAEDFAVYFCHQHSSNPLTFGQGTKLEIK
# notes: Residues 1-20 were left out as the signal peptide, which is marked by boldface only
# B3: construct #5: αC1s scFv-(G4S)2-αBb scFv (bispecific antibody)
# chain: QVQLVQSGAEVKKPGASVKLSCTASGFNIKDDYIHWVKQAPGQGLEWIGRIDPADGHTKYAPKFQVKVTITADTSTSTAYLELSSLRSEDTAVYYCARYGYGREVFDYWGQGTTVTVSSGGGGSGGGGSGGGGSDIVLTQSPDSLAVSLGERATISCKASQSVDYDGDSYMNWYQQKPGQPPKILIYDASNLESGIPARFSGSGSGTDFTLTISSLEPEDFAIYYCQQSNEDPWTFGGGTKVEIKGGGGSGGGGSEVQLVESGGGLVKPGGSLRLSCAASGFTFSNYAMSWVRQAPGKRLEWVATISNRGSYTYYPDSVKGRFTISRDNAKNSLYLQMNSLRAEDTALYYCARERPMDYWGQGTLVTVSSGGGGSGGGGSGGGGSDIQMTQSPSTLSASVGDRVTITCKASQDVGTAVAWYQQKPGKAPKLLIYWASTRHTGVPDRFSGSGSGTDFTLTISSLQAEDFAVYFCHQHSSNPLTFGQGTKLEIK
# B4: construct #6: αBb scFv-(G4S)2-αC1s scFv (bispecific antibody)
# chain: EVQLVESGGGLVKPGGSLRLSCAASGFTFSNYAMSWVRQAPGKRLEWVATISNRGSYTYYPDSVKGRFTISRDNAKNSLYLQMNSLRAEDTALYYCARERPMDYWGQGTLVTVSSGGGGSGGGGSGGGGSDIQMTQSPSTLSASVGDRVTITCKASQDVGTAVAWYQQKPGKAPKLLIYWASTRHTGVPDRFSGSGSGTDFTLTISSLQAEDFAVYFCHQHSSNPLTFGQGTKLEIKGGGGSGGGGSQVQLVQSGAEVKKPGASVKLSCTASGFNIKDDYIHWVKQAPGQGLEWIGRIDPADGHTKYAPKFQVKVTITADTSTSTAYLELSSLRSEDTAVYYCARYGYGREVFDYWGQGTTVTVSSGGGGSGGGGSGGGGSDIVLTQSPDSLAVSLGERATISCKASQSVDYDGDSYMNWYQQKPGQPPKILIYDASNLESGIPARFSGSGSGTDFTLTISSLEPEDFAIYYCQQSNEDPWTFGGGTKVEIK
# B5: construct #19: αC1s scFab-(G4S)3-αBb F2A Fab (bispecific antibody)
# chain: DIVLTQSPDSLAVSLGERATISCKASQSVDYDGDSYMNWYQQKPGQPPKILIYDASNLESGIPARFSGSGSGTDFTLTISSLEPEDFAIYYCQQSNEDPWTFGGGTKVEIKRTVAAPSVFIFPPSDEQLKSGTASVVCLLNNFYPREAKVQWKVDNALQSGNSQESVTEQDSKDSTYSLSSTLTLSKADYEKHKVYACEVTHQGLSSPVTKSFNRGECGGGGSGGGGSGGGGSGGGGSGGGGSGGGGSGGGGSQVQLVQSGAEVKKPGASVKLSCTASGFNIKDDYIHWVKQAPGQGLEWIGRIDPADGHTKYAPKFQVKVTITADTSTSTAYLELSSLRSEDTAVYYCARYGYGREVFDYWGQGTTVTVSSASTKGPSVFPLAPCSRSTSESTAALGCLVKDYFPEPVTVSWNSGALTSGVHTFPAVLQSSGLYSLSSVVTVPSSSLGTKTYTCNVDHKPSNTKVDKRVGGGGSGGGGSGGGGSEVQLVESGGGLVKPGGSLRLSCAASGFTFSNYAMSWVRQAPGKRLEWVATISNRGSYTYYPDSVKGRFTISRDNAKNSLYLQMNSLRAEDTALYYCARERPMDYWGQGTLVTVSSASTKGPSVFPLAPCSRSTSESTAALGCLVKDYFPEPVTVSWNSGALTSGVHTFPAVLQSSGLYSLSSVVTVPSSSLGTKTYTCNVDHKPSNTKVDKRV
# light: DIQMTQSPSTLSASVGDRVTITCKASQDVGTAVAWYQQKPGKAPKLLIYWASTRHTGVPDRFSGSGSGTDFTLTISSLQAEDFAVYFCHQHSSNPLTFGQGTKLEIKRTVAAPSVFIFPPSDEQLKSGTASVVCLLNNFYPREAKVQWKVDNALQSGNSQESVTEQDSKDSTYSLSSTLTLSKADYEKHKVYACEVTHQGLSSPVTKSFNRGEC
# Legend:
# [1] = biological target: T1, human complement C1s enzyme (activated …); experiment: cell-based or functional assay
# [2] = biological target: T2, human complement factor Bb (human, UniProt P00751 260-764); experiment: cell-based or functional assay
# [3] = biological target: T1, human complement C1s enzyme (activated …); experiment: BLI (Octet), biotinylated target on streptavidin sensor
# Text: (§1) Bio-layer interferometry (BLI) was used to assess the recombinant proteins' target engagement to and binding affinity for complement C1s enzyme (active C1s or “C1s” herein) and factor Bb (Bb) (Complement Technology, Tyler, TX, USA). C1s and Bb were biotinylated with EZ-Link™ Sulfo-NHS-LC-LC-Biotin (Thermo Fisher, Waltham, MA, USA) according to manufacturer instructions. Biotinylated C1s or Bb was loaded on Octet® Streptavidin (SA) Biosensors (Sartorius, Göttingen, Germany), followed by a concentration range of purified proteins. To assess dual target engagement, biotinylated active C1s or Bb was loaded onto sensors, followed by purified proteins (“first association phase”), followed by the non-captured complement target (Bb or active C1s, non-biotinylated; “second association phase”). The assays were performed at 30° C. using PBS with 0.1% Tween 20 as a diluent (FIG. 3).
# [4] = biological target: T2, human complement factor Bb; experiment: as above
# Text: as §1
# T2 sequence (P00751 260-764): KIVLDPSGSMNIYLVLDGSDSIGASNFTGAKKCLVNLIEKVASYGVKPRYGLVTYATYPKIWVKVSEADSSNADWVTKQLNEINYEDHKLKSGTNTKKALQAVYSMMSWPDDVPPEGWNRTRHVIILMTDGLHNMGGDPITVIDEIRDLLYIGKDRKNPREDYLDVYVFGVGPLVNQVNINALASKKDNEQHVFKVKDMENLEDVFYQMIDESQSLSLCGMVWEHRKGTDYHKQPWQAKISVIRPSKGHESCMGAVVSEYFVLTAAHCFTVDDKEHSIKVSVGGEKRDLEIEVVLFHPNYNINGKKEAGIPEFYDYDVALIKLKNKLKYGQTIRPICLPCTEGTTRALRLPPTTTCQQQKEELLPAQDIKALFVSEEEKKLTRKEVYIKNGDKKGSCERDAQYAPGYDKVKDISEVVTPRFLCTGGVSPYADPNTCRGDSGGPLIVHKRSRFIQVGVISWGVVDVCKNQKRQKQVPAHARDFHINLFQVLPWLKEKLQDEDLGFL
binder,measurement,setting,value
B1,IC50 CP (Wieslab),[1],87.7 nM
same,IC50 AP (Wieslab),[2],420 nM
same,Kd,[3],2.1 nM
same,koff,[3],0.00063 s⁻¹
same,kon,[3],300000 M⁻¹ s⁻¹
same,Kd,[4],1.8 nM
same,koff,[4],0.00021 s⁻¹
same,kon,[4],120000 M⁻¹ s⁻¹
B2,IC50 CP (Wieslab),[1],44.4 nM
same,IC50 AP (Wieslab),[2],201 nM
same,Kd,[3],1 nM
same,koff,[3],0.00029 s⁻¹
same,kon,[3],300000 M⁻¹ s⁻¹
same,Kd,[4],3 nM
same,koff,[4],0.00022 s⁻¹
same,kon,[4],70000 M⁻¹ s⁻¹
B3,IC50 CP (Wieslab),[1],216 nM
same,"IC50 AP (Wieslab); curve not saturated, estimated",[2],~2830 nM
B4,IC50 CP (Wieslab),[1],118 nM
same,"IC50 AP (Wieslab); curve not saturated, estimated",[2],~1260 nM
B5,IC50 CP (Wieslab),[1],34 nM
same,"IC50 AP (Wieslab); curve not saturated, estimated",[2],~2090 nM
